Numbering of substitutions follows the chain as printed. Names may count otherwise. Read-outs that look alike come from different tables or passages of the source.
Columns and labels:
[1] = target: T1, SNAP-Fbs (SNAP-wtFbs): human Fbs sugar binding domain, positions 113 to 296, wild type, SEQ ID NO: 2, fused to SNAP-tag (AGT variant, SEQ ID NO: 4), fusion SEQ ID NO: 3 (Homo sapiens, UniProt Q9UK22); test: Isothermal titration calorimetry of glycan / sialylglycopeptide binding to SNAP-Fbs in solution; conditions: ITC, low salt buffer (50 mM NaCl, 20 mM Tris-HCl, 1 mM EDTA, pH 7.5), 90 μM glycan into 9 μM Fbs, single site binding model
T1 construct: made in house; host or cells: E. coli, pSNAP-tag(T7)-2 vector
T1 sequence (Q9UK22 with tags, fused parts or gaps): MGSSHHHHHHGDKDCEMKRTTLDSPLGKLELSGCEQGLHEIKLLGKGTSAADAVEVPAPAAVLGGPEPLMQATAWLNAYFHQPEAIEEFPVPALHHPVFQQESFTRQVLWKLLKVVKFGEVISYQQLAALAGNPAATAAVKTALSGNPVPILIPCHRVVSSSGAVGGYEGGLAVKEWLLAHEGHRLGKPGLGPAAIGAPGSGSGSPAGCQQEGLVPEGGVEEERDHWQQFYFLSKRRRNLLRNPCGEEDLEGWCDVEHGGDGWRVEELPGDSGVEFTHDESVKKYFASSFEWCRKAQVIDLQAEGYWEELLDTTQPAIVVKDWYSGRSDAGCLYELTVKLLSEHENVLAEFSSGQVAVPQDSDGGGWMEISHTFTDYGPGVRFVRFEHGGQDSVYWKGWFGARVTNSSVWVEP
Method: Fbs binds to N-glycan and N-glycan with fucose modification at the reducing end of GlcNAc. Isothermal titration calorimetry was used to assay the interaction between Fbs and core structure glycans. Man3GlcNAc2 (M3N2) and Man3GlcNAc2 with (alpha 1-6) fucose modification at the reducing end of GlcNAc (M3N2F) were used as binding substrates (both substrates were purchased from Prozyme, Hayward, Calif. SNAP-Fbs was dialysed against low salt buffer and the glycans were also dissolved in the same dialysis buffer. A Nano ITC instrument (TA Instruments, Lindon, Utah) with 170 μl cell volume and 50 μl buret volume was used. Every 300 seconds, 2.97 μl of 90 μM glycan was automatically injected into 9 μM Fbs solution. The data was fitted using a single site binding model (Nanoanalyze software (TA Instruments, Lindon, Utah)), and the Kd was calculated.
Isothermal titration calorimetry analysis of SGP (Fushimi Pharmaceutical Co., Marugame, Japan) binding to SNAP-Fbs. SNAP-Fbs was dialysed against low salt buffer and SGP was also dissolved in the same low salt buffer. A Nano ITC instrument with 170 μl cell volume and 50 μl buret volume was used. Every 300 seconds, 2.97 μl of 270 μM SGP was automatically injected into 27 μM Fbs solution. The data was fitted using a single site binding model (Nanoanalyze software), and Kd was calculated. […]

[2] = Binding of 2-AB labeled M3N2 to SNAP-Fbs beads; conditions: low salt buffer, versus SNAP control beads
Text: When PNGase F is used to trim N-glycans away from the peptides or proteins, the terminal GlcNAc residue becomes available for modification. A common modification is fluorophore labeling using 2-AB dye. The primary amino group of the dye performs a nucleophilic attack on the carbonyl carbon of the acyclic reducing terminal residue to form a partially stable Schiff's base. […] The conserved terminal GlcNAc residue is thus referred to as the “reducing end” of a glycan species. Upon 2-AB labeling, the carbohydrate ring structure is no longer capable of forming. Fifty picomoles of 2-AB labeled M3N2 in low salt buffer were incubated with SNAP-Fbs beads or SNAP control beads (SNAP Capture beads conjugated to SNAP-tag Purified Protein, New England Biolabs, Ipswich, Mass.).

[3] = target: T2, RNase B tryptic digest spiked with SGP (Homo sapiens, UniProt Q9UK22); test: Enrichment of N-glycopeptides from RNase B tryptic digest spiked with SGP (LC-MS); type: binding; conditions: low salt or high salt volatile buffer, TIC
T2 construct: His6 (N); made in house; host or cells: E. coli
T2 sequence (Q9UK22 with tags, fused parts or gaps): T1 sequence (Q9UK22 with tags, fused parts or gaps)
Text: Fbs beads were used to capture and enrich N-glycopeptides from a complex mixture. The complex mixture was a tryptic digest of RNase B spiked with SGP to serve as a complex, sialylated glycopeptide. RNase B contains several non-glycosylated peptides and several different high mannose N-glycopeptides (labeled in the enlargement as: M5N2, M6N2). One hundred eighty-five micrograms RNase B was digested with 4 micrograms trypsin (New England Biolabs, Ipswich, Mass.) in trypsin digestion buffer and then filtered with a 10 kDa Microcon 10 centrifugal filter unit (Millipore, Billerica, Mass.) to remove trypsin and any undigested RNase B. PMSF (1 mM final concentration) was added to inhibit any residual trypsin. 100 micrograms SGP was added to the RNase B digest. Then immobilized binding reagent, SNAP-Fbs beads in this example, was mixed with the complex mixture and incubated at 4° C. for 1 hour in the presence of either low salt volatile buffer or high salt volatile buffer. The beads were washed with low salt volatile buffer or high salt volatile buffer, respectively. The bound N-glycopeptides were eluted using 50% acetonitrile, then lyophilized and analyzed by mass spec (LC-MS method). […] The dotted line indicates the chromatogram of the input mixture without enrichment. […]
The different peptides and N-glycopeptides present in the complex mixture described in Example 11 were quantified.

SGP-TMR = target: T3, SGP-TMR (Homo sapiens, UniProt Q9UK22); test: Elution of bound SGP-TMR from Fbs beads; conditions: 100 ul 2 M ammonium bicarbonate
T3 construct: His6 (N); made in house; host or cells: E. coli
T3 sequence (Q9UK22 with tags, fused parts or gaps): T1 sequence (Q9UK22 with tags, fused parts or gaps)
Method: N-glycan linked glycomolecules reversibly binds to Fbs beads. Different reagents were tested for releasing bound N-linked glycopeptides from Fbs beads. 100 μl Fbs beads with bound SGP-TMR were collected, washed with 300 μl low salt binding buffer once, and divided into three aliquots (30 μl beads each aliquot). 100 ul of 2 M ammonium bicarbonate (NH4HCO3), 50% acetonitrile, or 1% acetic acid were added to Fbs beads with bound SGP-TMR to elute SGP-TMR. The beads were centrifuged and supernatants were collected. The solvent in the supernatant was removed by vacuum evaporation using a speedvac, and SGP-TMR was reconstituted in low salt buffer. SGP-levels were measured as described in Example 9. […] 1% Acetic acid released approximately 65% of SGP-TMR. In contrast, less than 30% of bound N-glycan linked glycomolecules were released with 2 M ammonium bicarbonate.

Fetuin and RNase B = test: Pull-down of Fetuin and RNase B mixture by immobilized Fbs beads; type: binding; conditions: input defined as 1
Method: The same amount of wild-type Fbs, Fbs GYR mutant and PPRYR mutant proteins were conjugated to SNAP capture resin using the conditions described in Example 2 (FIG. 10B). Binding to RNase B with high mannose N-glycan and Fetuin with sialyated complex N-glycan linked glycomolecules was analyzed in a single experiment. A mixture of denatured Fetuin and RNase B (denatured by boiling for 10 minutes in the presence of 1× Rapid PNGase F buffer (New England Biolabs, Ipswich, Mass.) were pulled down by the immobilized Fbs beads conjugated with equal amount of WT, GYR or PPRYR Fbs proteins (FIGS. 10A and 10B). The bound fetuin and RNase B were eluted by 1× gel loading buffer, and analyzed by -PAGE/Coomassie blue staining. The amount of fetuin or RNase B on -PAGE gels were quantified using Image J. The ratio of Fetuin to RNase B (Fetuin/RNase B) is arbitrarily defined as 1 in the input (FIG. 10A, Lane 7 and 10C). In low salt volatile buffer conditions, wild-type Fbs pulled down a very small amount of Fetuin (FIG. 10A, Lane1), and the Fetuin/RNase B is only 0.29 (FIG. 10C), which indicates biased N-glycan linked glycomolecule binding. […]

Fetuin = Fetuin pull-down assay (Affigel-Fetuin beads, SDS-PAGE, ImageJ); type: binding; conditions: low salt buffer, cell lysates
Text: Fetuin, which contains sialylated complex N-linked glycans, served as the complex N-linked glycomolecule in this example. Fetuin was conjugated to Affigel 15 resin (Bio-Rad, Hercules, Calif.), and then denatured by 6 M Guanidine HCL. After denaturation, the fetuin beads were washed with 50 bead volumes of low salt buffer to remove Guanidine HCL. This immobilized denatured Fetuin was used to screen Fbs mutants for improved affinity to complex N-linked glycomolecules in low salt conditions in a fetuin pull-down assay. In this assay, cell lysates containing the same amount of wild type or mutant Fbs protein were incubated with the same amount of fetuin beads at 4° C. for 1 hour. After incubation, the fetuin beads were washed three times with low salt buffer. The bound Fbs proteins were eluted by 1× gel loading buffer, and analyzed by SDS-PAGE. In the fetuin pull-down assay, the amount of Fbs mutant protein shown on the SDS-PAGE gel indicates the relative affinity of each Fbs mutant for binding to a complex N-linked glycomolecule. Fbs amino acid residue serine 155 was mutated to alanine to assess the effect on the interaction with complex N-linked glycomolecules. Mutation of Ser155 to alanine was expected to reduce the affinity of the interaction between Fbs and fetuin according to the published report of Tanaka et al. (Tanaka, et al. PNAS). […]

CC(=O)N[C@H]1[C@H](O[C@H]2[C@H](O)[C@@H](NC(C)=O)C(O)O[C@@H]2CO)O[C@H](CO)[C@@H](O[C@@H]2O[C@H](CO[C@H]3O[C@H](CO)[C@@H](O)[C@H](O)[C@@H]3O)[C@@H](O)[C@H](O[C@H]3O[C@H](CO)[C@@H](O)[C@H](O)[C@@H]3O)[C@@H]2O)[C@@H]1O (stereo partly drawn) [M3N2, Man(α1-3)(Man(α1-6))Man(β1-4)GlcNAc(β1-4)GlcNAc]
Kd ([1]; read-out: Kd M3N2): 123 ± 36 nM

CC(=O)N[C@H]1[C@H](O[C@H]2[C@H](O)[C@@H](NC(C)=O)C(O)O[C@@H]2CO[C@@H]2O[C@@H](C)[C@@H](O)[C@@H](O)[C@@H]2O)O[C@H](CO)[C@@H](O[C@@H]2O[C@H](CO[C@H]3O[C@H](CO)[C@@H](O)[C@H](O)[C@@H]3O)[C@@H](O)[C@H](O[C@H]3O[C@H](CO)[C@@H](O)[C@H](O)[C@@H]3O)[C@@H]2O)[C@@H]1O (stereo partly drawn) [M3N2F]
Kd ([1]; read-out: Kd M3N2F): 128 ± 37 nM

B1: wtFbs: sugar binding domain (position 113 to 296) of human Fbs, SEQ ID NO: 2, tested as SNAP-tag fusion (SEQ ID NO: 3), free or on BG beads (protein)
chain: T1 sequence (Q9UK22 with tags, fused parts or gaps)
modifications: SNAP-tag fusion; optionally on BG beads
binding of 2-AB labeled M3N2 [2]: disrupts the interaction | enrichment of non-glycosylated peptides [3]: not enriched | bound N-glycan linked glycomolecules released (SGP-TMR): less than 30% | Fetuin/RNase B ratio (Fetuin and RNase B; high salt volatile buffer (2 M ammonium acetate pH 7.5)): 0.92 | Fetuin/RNase B ratio (Fetuin and RNase B; low salt volatile buffer (50 mM ammonium acetate pH 7.5)): 0.29

B2: S155A: human Fbs SBD variant with S155A mutation (protein)
chain: FYFLSKRRRNLLRNPCGEEDLEGWCDVEHGGDGWRVEELPGDAGVEFTHDESVKKYFASSFEWCRKAQVIDLQAEGYWEELLDTTQPAIVVKDWYSGRSDAGCLYELTVKLLSEHENVLAEFSSGQVAVPQDSDGGGWMEISHTFTDYGPGVRFVRFEHGGQDSVYWKGWFGARVTNSSVWVEP
modifications: left off: large carriers
notes: human Fbs SBD variant with S155A mutation
fetuin pull-down relative to wild type Fbs (Fetuin): 1.5 fold

B3: S155G: human Fbs SBD variant with S155G mutation (protein)
chain: B2 chain with A43G
modifications: left off: large carriers
notes: human Fbs SBD variant with S155G mutation
fetuin pull-down relative to wild type Fbs (Fetuin): 2.0 fold

From US10507233B2, “Universal N-glycan binding reagent” (New England Biolabs, Inc., priority 2014, dated 2019)
